The values that follow come from patent publication US20260217845A1 (ODYSSEY THERAPEUTICS, published 2026).

T1: mouse TNFR2 (extracellular domain) (mouse, UniProt P25119 23-258)
T1 construct: also called mTNFR2
T1 sequence: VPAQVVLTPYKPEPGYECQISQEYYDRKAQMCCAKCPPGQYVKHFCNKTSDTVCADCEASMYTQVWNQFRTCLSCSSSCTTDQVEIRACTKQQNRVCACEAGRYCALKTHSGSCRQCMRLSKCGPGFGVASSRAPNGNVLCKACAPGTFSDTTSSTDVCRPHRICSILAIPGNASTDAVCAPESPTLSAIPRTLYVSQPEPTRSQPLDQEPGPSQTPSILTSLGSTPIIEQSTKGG

T2: human TNFR2 (extracellular domain) (human, UniProt P20333 23-257)
T2 construct: also called hTNFR2; human tumor necrosis factor receptor 2
T2 sequence: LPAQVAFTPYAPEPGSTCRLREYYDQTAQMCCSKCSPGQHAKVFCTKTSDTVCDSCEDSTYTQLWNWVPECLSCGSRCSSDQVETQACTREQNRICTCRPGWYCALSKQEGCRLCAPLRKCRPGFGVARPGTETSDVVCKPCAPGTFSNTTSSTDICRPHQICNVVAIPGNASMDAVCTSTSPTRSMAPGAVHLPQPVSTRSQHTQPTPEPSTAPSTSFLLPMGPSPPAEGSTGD

B1: ODY-33D4 (VHH)
VHH: EVQLVESGGGLVQAGGSLRLSCAASGRTFSDYGMGWFRQAPGKDSEFVAAINWSNGRTNYADSVKGRFTISRDNAKNTGYLEMNSLKVEDTAVYYCAATPSGKAYSYWGQGTQVTVSS
B2: ODY-35A10 (VHH)
VHH: EVQLVESGGGLVEAGGSLRLSCAASGRTFGSYTMGWFRQAPGREQEFLASIRRTGGSTSYADSVKGRFTISRDNAKKAVYLQMNSLKPEDTAVYYCAAAPTGRAFTYWGQGTQVTVSS
B3: ODY-31G3 (VHH)
VHH: EVQLVESGGGLVQAGGSLRVSCAASGSIFRADAMGWHRQVPGKPREFVAGIRSDGFTNYAEAVKGRFTISWDTVKNTVYLQMNSLKPEDTAVYTCYYQSLSSPNYGQVFWGQGTQVTVSS
B4: ODY-31D6 (VHH)
VHH: EVQLVESGGGLVQAGGSLRLSCAASGSIVSTNGMGWHRQVPGKGRELVAGIRSDGFTNYADSVKGRFTISSDNVKNTVYLQMNSLKAEDSGVYFCYYQALSSPNYGQTFWGQGTQVTVSS
B5: ODY-37C7 (VHH)
VHH: EVQLVESGGGLVQPGGSLRLSCAASGFTFDDIAMTWVRQAPGKGLEWVSSIYSYGPNTYYADSVKGRFTISTDSAKNTLYLQMNSLKPEDTAVYYCAADSDLSTVVVGPHDYWGQGTQVTVSS

For one assay, the target named is T1, mouse TNFR2 (extracellular domain). Description: SPR (Carterra LSA), V-body coupled to HC200M chip, TNFR2 extracellular domain in solution. Here is the method: (§1) Binding affinities of the V-bodies to their respective target was determined by surface plasmon resonance (SPR) using a Caterra LSA instrument. Affinity purified V-bodies were covalently crosslinked onto an LSA HC200M chip using EDC/Sulfo NHS. The interaction with human, cynomolgus, and mouse TNFR2 (extracellular domain) (V-body coupling concentration: human, […]; cynomolgus/mouse, 4 μM) was measured under physiological conditions (Running Buffer: HBST-50 mM HEPES pH 7.4, 150 mM NaCl, 0.1% (w/v) BSA, 0.05% (v/v) Tween20, 25° C.) using eight different antigen concentrations (3-fold serial dilutions, start at 200 nM). Resulting sensorgrams (FIGS. 9A-9F) were analyzed and equilibrium-binding affinities (KDs) were calculated using Carterra's data analysis software.
Turning to B1, the binding result is listed as “no binding (tested: 200 nM (highest antigen concentration))”.

Turning to B2, the binding result is on record as “no binding (tested: 200 nM (highest antigen concentration))”.

B3: the binding result was “no binding (tested: 200 nM (highest antigen concentration))”.

On to B4, for which the binding result is given as “no binding (tested: 200 nM (highest antigen concentration))”.

Regarding B5, the binding result is “no binding (tested: 200 nM (highest antigen concentration))”.

For another assay, the target named is T2, human TNFR2 (extracellular domain). Put plainly: SPR (Carterra LSA), V-body coupled to HC200M chip, TNFR2 extracellular domain in solution, 8 concentrations from 200 nM. Here is the method:
as §1
Take B1: the binding result is recorded as “binds”.

Regarding B2, the binding result is recorded as “binds”.

Consider B3, for which the binding result is listed as “binds”.

As to B4, the binding result was “binds”.

On to B5, for which the binding result is listed as “binds”.
